Measured values reported in patent US6835382B2, “Ii peptide therapeutics to enhance antigen presentation” (University of Massachusetts, priority 1996, dated 2004).
Non-standard residues stand in square brackets, D forms with d. Hyp = O=C(O)[C@@H]1C[C@@H](O)CN1

T1: murine E^d MHC class II allele (Mus musculus, UniProt P01904+P01915)
T1 sequence (P01904 26-255): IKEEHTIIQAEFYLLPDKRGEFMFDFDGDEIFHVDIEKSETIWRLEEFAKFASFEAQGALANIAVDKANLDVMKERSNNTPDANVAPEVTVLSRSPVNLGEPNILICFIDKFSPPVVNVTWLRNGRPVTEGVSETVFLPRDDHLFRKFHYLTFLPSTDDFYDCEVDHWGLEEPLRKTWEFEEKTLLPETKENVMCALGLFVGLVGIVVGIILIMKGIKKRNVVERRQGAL
T1 sequence (P01915 27-264 limits assumed): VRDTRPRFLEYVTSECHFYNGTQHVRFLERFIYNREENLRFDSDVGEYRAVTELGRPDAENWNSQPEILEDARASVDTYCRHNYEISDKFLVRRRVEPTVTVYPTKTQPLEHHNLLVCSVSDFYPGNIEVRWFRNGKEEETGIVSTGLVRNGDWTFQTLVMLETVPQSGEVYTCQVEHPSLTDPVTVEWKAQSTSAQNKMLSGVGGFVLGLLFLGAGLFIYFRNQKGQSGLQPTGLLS

B1: AE143 (peptide)
peptide: Ac-YRMKL[Hyp]KSAK-NH2
SMILES: CSCC[C@H](NC(=O)[C@H](CCCNC(=N)N)NC(=O)[C@H](Cc1ccc(O)cc1)NC(C)=O)C(=O)N[C@@H](CCCCN)C(=O)N[C@@H](CC(C)C)C(=O)N1C[C@H](O)C[C@H]1C(=O)N[C@@H](CCCCN)C(=O)N[C@@H](CO)C(=O)N[C@@H](C)C(=O)N[C@@H](CCCCN)C(N)=O
B2: AE381 (peptide)
peptide: LRMKLPK
modifications: head-to-tail cyclization: the amino terminal amino group is coupled through an amide linkage to the carboxyl terminal group

Experiments:
[1] = biological target: soluble HLA-DR1 (HLA-DR alpha truncated after Asn192 with a C-terminal nine amino acid HA epitope tail; HLA-DR1 beta truncated after Lys198), made in Baculovirus-infected insect cells (human); assay: release ELISA as Table 36; unlabeled hMBP(90-102) 250 uM alone against prebound biotin-hMBP(90-102) on tethered HLA-DR1
[2] = tested on: murine E^k MHC class II allele; assay: AE101 series peptide prepulse assay, E^k allele; assay type: cell-based; conditions: Table 35; AE101 series peptide prepulse 64 μM; antigenic peptide 0.4 μM; supernatant dilution 1:2
Method: (§1) Table 35: Activities of multiple substitution analogs of AE235, targeting the E^k and E^d allele, in an AE101 series peptide prepulse assay. In this assay the concentration of AE101 series peptides used during the prepulse was 64 μM. The concentrations of antigenic peptides were 0.3 μM for Ed and 0.4 μM for E^k. The supernatant dilutions taken into the HT-2 cell assay was 1:4 for E and 1:2 for E^k. The AE381 peptide is a head-to-tail cyclization: the amino terminal amino group is coupled through an amide linkage to the carboxyl terminal group. The AE 382 peptide is a side-to-tail cyclization: the epsilon amino group of Lys^4 is coupled through an amide linkage to the carboxyl terminal group.
(§2) AE101 series peptide prepulse assays were carried out in the E^d and E^k systems as described for simultaneous competition assays with the following modifications. Fixed APC were first incubated for 6 h at 1×10^6DMEM-5% FCS with 64 μM of each AE101 series peptide or with PBS. The APC were then washed four times with ten volumes of DMEM-5% FCS, and were cocultured with T hybridoma cells and the indicated submaximal doses of antigenic peptides used in the simultaneous competition assays. The baseline T cell response was measured by culturing T hybridoma cells with antigenic peptide and PBS-pretreated APC.

[3] = tested on: murine E^k MHC class II allele; assay: simultaneous assay, E^k allele (CH27 APC, TPc9.1 T hybridoma, THMCC82-103 or PGCC81-104); assay type: cell-based; conditions: Table 12, supernatant 1:4
Procedure, shortened: (§3)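 Read-out is [3H]TdR incorporation into HT-2 indicator cells exposed to supernatant from a 24 h primary culture. That culture combined mitomycin C-treated APC (5×10^6 cells/mL, 0.025 mg/mL mitomycin C, 20 min, 37° C), peptide, effector compound and T hybridoma, all added at once.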

[4] = biological target: T1, murine E^d MHC class II allele; assay: simultaneous assay, E^d allele (A20 APC, G28.C9 T hybridoma, HEL106-116; HT-2 [3H]TdR readout); assay type: cell-based; set-up: The A20 and CH27 B cell lymphoma lines express H-2^d and H-2^k alleles, respectively; endogenous in cells; host or cells: A20 B cell lymphoma (mitomycin C-treated or paraformaldehyde-fixed); conditions: Table 12, supernatant 1:2
Procedure, shortened: as §3

[5] = biological target: T1, murine E^d MHC class II allele; assay: AE101 series peptide prepulse assay, E^d allele; assay type: cell-based; conditions: Table 35; AE101 series peptide prepulse 64 μM; antigenic peptide 0.3 μM; supernatant dilution 1:4
Method: as §1, §2

[6] = biological target: soluble HLA-DR1 (HLA-DR alpha truncated after Asn192 with a C-terminal nine amino acid HA epitope tail; HLA-DR1 beta truncated after Lys198), made in Baculovirus-infected insect cells (human); assay: exchange ELISA: tethered HLA-DR1 preloaded with unlabeled hMBP(90-102) 50 uM, washed; biotin-hMBP(90-102) 50 uM alone, no AE peptide, 1 h 37 C
[7] = biological target: soluble HLA-DR1 (HLA-DR alpha truncated after Asn192 with a C-terminal nine amino acid HA epitope tail; HLA-DR1 beta truncated after Lys198), made in Baculovirus-infected insect cells (human); assay: release ELISA as Table 36 (biotin-hMBP(90-102) left on tethered HLA-DR1); AE peptide 64 uM, with unlabeled hMBP(90-102) 250 uM
[8] = biological target: soluble HLA-DR1 (HLA-DR alpha truncated after Asn192 with a C-terminal nine amino acid HA epitope tail; HLA-DR1 beta truncated after Lys198), made in Baculovirus-infected insect cells (human); assay: release ELISA: soluble HLA-DR1 tethered by 12CA5 and preloaded with biotin-hMBP(90-102); AE peptide 64 uM, 1 h 37 C, no unlabeled peptide; biotin still bound read by avidin-HRP (1.0 = PBS control, 0.0 = no DR1; low value = released)
[9] = biological target: soluble HLA-DR1 (HLA-DR alpha truncated after Asn192 with a C-terminal nine amino acid HA epitope tail; HLA-DR1 beta truncated after Lys198), made in Baculovirus-infected insect cells (human); assay: release ELISA as Table 36 (biotin-hMBP(90-102) left on tethered HLA-DR1); AE peptide 1 uM, with unlabeled hMBP(90-102) 250 uM
[10] = biological target: soluble HLA-DR1 (HLA-DR alpha truncated after Asn192 with a C-terminal nine amino acid HA epitope tail; HLA-DR1 beta truncated after Lys198), made in Baculovirus-infected insect cells (human); assay: loading ELISA: empty tethered HLA-DR1 with biotin-hMBP(90-102) 50 uM and AE peptide 64 uM, 1 h 37 C; biotin bound read by avidin-HRP
[11] = biological target: soluble HLA-DR1 (HLA-DR alpha truncated after Asn192 with a C-terminal nine amino acid HA epitope tail; HLA-DR1 beta truncated after Lys198), made in Baculovirus-infected insect cells (human); assay: exchange ELISA: tethered HLA-DR1 preloaded with unlabeled hMBP(90-102) 50 uM, washed; AE peptide plus biotin-hMBP(90-102) 50 uM, 1 h 37 C; biotin bound as fraction of positive control (overnight loading)
[12] = biological target: soluble HLA-DR1 (HLA-DR alpha truncated after Asn192 with a C-terminal nine amino acid HA epitope tail; HLA-DR1 beta truncated after Lys198), made in Baculovirus-infected insect cells (human); assay: release ELISA as Table 36 (biotin-hMBP(90-102) left on tethered HLA-DR1); AE peptide 64 uM, without unlabeled hMBP(90-102)
[13] = biological target: soluble HLA-DR1 (HLA-DR alpha truncated after Asn192 with a C-terminal nine amino acid HA epitope tail; HLA-DR1 beta truncated after Lys198), made in Baculovirus-infected insect cells (human); assay: release ELISA as Table 36 (biotin-hMBP(90-102) left on tethered HLA-DR1); AE peptide 1 uM, without unlabeled hMBP(90-102)
[14] = biological target: soluble HLA-DR1 (HLA-DR alpha truncated after Asn192 with a C-terminal nine amino acid HA epitope tail; HLA-DR1 beta truncated after Lys198), made in Baculovirus-infected insect cells (human); assay: release ELISA as Table 36; AE101 1 uM, without unlabeled hMBP(90-102)
[15] = AE peptide 16 μM (second value)

Molecule	Relative Release (fraction of positive control o.d.) [7]	Relative Release (fraction of positive control o.d.) [8]	Relative Release (fraction of positive control o.d.) [9]	Relative Enhancement (of biotin-hMBP(90-102) binding to empty HLA-DR1) (relative to no AE peptide = 1) [10]	Relative Binding (of biotin-hMBP(90-102) to HLA-DR1) (fraction of positive control o.d.) [11]	Relative Release (fraction of positive control o.d.) [12]	Relative Release (fraction of positive control o.d.) [13]	further results
unlabeled human myelin basic protein peptide hMBP(90-102) (from UniProt P02686 90-102)	–	–	–	–	–	–	–	Relative Release (fraction of positive control o.d.) [1]: 0.81
Ac-LRMKlpk-NH2 [AE172]	–	–	–	–	–	–	–	T cell response relative to baseline with PBS-pretreated APC (NONE = 1.0), E^k [2]: 2.1; Times Baseline Response, E^k ([3]; AE peptide 1 μM (fourth value)): 2.8; Times Baseline Response, E^k ([3]; AE peptide 4 μM (third value)): 4.2; Times Baseline Response, E^k [3, 15]: 21.1; Times Baseline Response, E^k ([3]; AE peptide 64 μM (first value)): 46.2; Times Baseline Response, E^d ([4]; AE peptide 1 μM (fourth value)): 2; Times Baseline Response, E^d ([4]; AE peptide 4 μM (third value)): 2; Times Baseline Response, E^d [4, 15]: 7; Times Baseline Response, E^d ([4]; AE peptide 64 μM (first value)): 54; T cell response relative to baseline with PBS-pretreated APC (NONE = 1.0), E^d [5]: 1.1
N-terminally biotin-labeled human myelin basic protein peptide hMBP(90-102) (from UniProt P02686 90-102)	–	–	–	–	–	–	–	Relative Binding (fraction of positive control o.d.) [6]: 0.08
Ac-LRMKYPK-NH2 [AE235]	0.6	0.79	0.48	0.61	0.15	0.81	1.05	–
B1	0.21	–	0.35	–	–	0.58	0.51	–
B2	-0.19	–	0.09	1.84	-0.12	0.5	0.64	–
Ac-LRLKLPK-NH2 [AE206]	-0.29	–	0.03	2.57	-0.13	0.08	0.58	–
YRMKLPKSAK [AE108]	0.14	1.14	0	–	–	0.31	0.52	–
YRMKLPKSAKPVSQMR [AE101]	–	-0.33	–	2.66	0.31	–	–	Relative Release (fraction of positive control o.d.) [14]: 0.02
